Numbering of substitutions follows the chain as printed.

Series [1] addresses HA-tagged NRASQ61R (HA-NRASQ61R).
Series [2] has as its target HA-tagged wild-type NRAS (HA-NRASWT).

B1: Flag-tagged STK19D89N (protein)
chain: MQKWFSAFDDAIIQRQWRANPSRGGGGVSFTKEVDTNVATGAPPRRQRVPGRACPWREPIRGRRGARPGGGDAGGTPGETVRHCSAPENPIFRFSSLHSYPFPGTIKSRDMSWKRHHLIPETFGVKRRRKRGPVESDPLRGEPGSARAAVSELMQLFPRGLFEDALPPIVLRSQVYSLVPDRTVADRQLKELQEQGEIRIVQLGFDLDAHGIIFTEDYRTRVCDCVLKACDGRPYAGAVQKFLASVLPACGDLSFQQDQMTQTFGFRDSEITHLVNAGVLTVRDAGSWWLAVPGAGRFIKYFVKGRQAVLSMVRKAKYRELLLSELLGRRAPVVVRLGLTYHVHDLIGAQLVDCISTTSGTLLRLPET
With B1, the “in vitro kinase assay, phosphorylation of NRAS” value (shortened to “in vitro kinase assay … of NRAS”) in series [1] and in series [2] was “phosphorylation of purified recombinant NRAS was enhanced by STK19D89N to a higher extent than by STK19WT” throughout.

B2: Flag-tagged kinase-dead STK19K317P (protein)
chain: B1 chain with N89D, K317P
For B2, the “phosphorylated serine levels in NRAS (immunoblot)” value in series [1] is “The upregulation of phosphorylated serine levels in NRAS was also diminished by overexpression of a kinase-dead STK19 K317P mutant”.

B3: Flag-tagged STK19 wild type (STK19-Flag) (protein)
chain: B1 chain with N89D
With B3, the “in vitro kinase assay … of NRAS” value with HA-NRASQ61R/S89A was “mutation of S89 to alanine (S89A) abolished phosphorylation of NRASWT and NRASQ61R”. Also, in the series with HA-NRASS89A, the “in vitro kinase assay … of NRAS” value is “mutation of S89 to alanine (S89A) abolished phosphorylation of NRASWT and NRASQ61R”. Besides, in series [2], the “in vitro kinase assay, NRAS preloaded with GDP, GTP or GTPγS” value was “a higher STK19-induced phosphorylation of the GTP- and GTPγS-loaded NRAS than GDP-loaded NRAS”; the “serine phosphorylation of NRAS (immunoblot after NRAS immunoprecipitation, HPMs)” value was “only a marginal increase in phosphorylation of NRASWT was detected”.

The record behind these values is patent publication US20200199081.
